Laboratory results published in the NTF2 design screens of Basanta et al. (2020).

Assay: protease stability score; higher = more stable; yeast display proteolysis, trypsin and chymotrypsin;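 further: relative to predicted unfolded state with 0 unfolded-like and 1 meaning tenfold more protease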

Sequence	protease stability score
SEDEKIARDVIKLVLHAMRTGDEELFLKLADPNVRILFDGKELHGREEVIRFRERIDHFDIKRFDLRDMKIINGVMHVDVEIDGVLEVDGVRERRIEKVRWVVLKVDGRWRTHSIEIV	2.69
SEDDEFIRFVSEIIEHILETGDEESLIKLADPNAQFIHIINGREIRYHGRHIFIEWWRRLGIDHLKIEDVRVEQQGDKMRTDFRVILRVGDKTIDSKLHFLIRKVDGKWHVESIKVEHR	2.27
DERKTISHMIEEIWHRIIRTGDEEAFIKYFDPHARIHVDGKEIHGREKVLEFLIEIFRHLRVEDYTVHSYNTQGDKIHIDTRMDGEVDGRREVNQTRIIATKINGQWILTEVHLS	0.36
DEWDEKLHHFFELMSHAMETGDEHMQDELADPHVRLIINGVDYIGRERFREMVKRVDYFSVRDIHFKDKEIQGDFIHFRGTLNGEEIINGVRIEKEVDFKLLILKVDGRWFLESEERR	0.668
DELKKMLKEMEEFHTDLLETGDFEKIIRNVDPHVRIDVNGQEHHGWHEAVEFIREFIERFKNVKIIIEHVEIQGDKLILHMEFRQGEFHSRLIVYSLKVNGRWILKDMEIR	1.67
SEEEEETEEVADLHLETLKTGNEDLLEDLLDPNVRVIVNGKHHIGRHFLLKWVTEFGIKHFELKRREIDIQGEKADIHIQGNMYFNGRTVRAHIHQEVTKFDGRWFNHRVEIEFK	1.84
SEEDEQSKKILHIFIEILKTGDFETLEHMLDPNAKLDIDGRDLHGRELFLSMWEEFVRQYKNLRIIFRDYRLYGDYVIIHGQLRINGKTHDLRFHIVNINGRLKHLKIEHE	1.46
DNEERYMIKLLHMLWLAFLTGDEELWYKLADPHVRWTFENREIHGREQFVKEQRRIKNMRIEMELKDVRVQGDKIHTDGHLEINQGDKHIHTDVRLHLVVINGRLHEFHVTLV	1.54
SEEEEEAERIYRNWLHNLHTGNEESERLMADPDVRYEINGVERVGWEEVHHFLREIRVHLRHVEIKHSDLINGRAHIEGHVDMEVRVNGVTMRIRTDTILRVVVIDGRLKSVSQEIL	0.648
DELEKFIKYVATRLVHDWMTGDEETSKKLLDPHYKTRILYDGRYTELHGREIFVKFVRELLEEIRIHLEVDRIRPIGDKVLLDTRLEIRIGDKRIERSTELHYVVINGRVDQMELVFI	1.32
DELDHDIERNLRLWLEALYTGDFEFLLRLVDPNVRMHINGVNDHGWKFAEFLIRRADHSEMEIRIRHVHEVNGVLRMDGEVKFDIRQGDKSREKHIEVHMVLMKVNGQWFVKSFEFK	1.47
NELDKHTKEFAERWIKSVETGDWRSEEHLLDPHVKLETKVNGRDVRVVGREEVHRYLRELHEELGVDKVEFITRRIRLQGDKIDIDGELRINGRTHEAHIHLDIINGRIHSVRLQWT	1.44
SEEKEHSDRLAEHLIHWFYTGDEDKLNELFDPNTKYVINGKELHGMESEHRERREEWRRVKNITFSIKHWDIQGNKVILHMTIHVGEKDIFVTYEYRIFDGKMKEIQVHVR	0.867
SEEEHWVREFEEAVRHDAETGDENSISEFLDPNVRVDINGKELHGRELMDEMIRHFLERYDHIRIHIHDNRLIDGRVEMDIRLYFIQGEKHMEIDSERFIFKVDGKWRLEEVRIK	0.3
DEFHHWYERVIQEFDHAVETGNEHRIRELLDPNVRIIIDGQDLHGREDMIHLISEIRVSITDRRERSFRPVGDKINLLMRVDQQVFVDGQTEQVDTEVRWIIIKVNGVWLIRRIEVI	1.47
SEEEKHWEDLVEHLHQIWLTGDEDTLRHRLDPNMRMDIDGKELHGRESIIEEIRRLGVDHVETKRKHSQGDKAHFDLIIRIDGKEHKMEIVIVVVNGKLKEVVLRRK	1.1
SEEDEEFRHVVERWVRAVTTGNEDELESLLDPNVRLDVGDKRTHGREKWTELFRHLRTQVHHIEITEKHTVGDKVHYRGTLDMTFYVDGVDVRSETETTLVMVKYNGRWQYTHVIIH	1.15
SDEEHELREATEILLHLFLTGDEESLDNLADPNVRVDYNGVKYHGREVLSFWLHEELKHARIHIRIRSLHLVGEFLHIQGEVRIEQGEFRRRHDMHWIIEKVDGRWIIRYVLIK	1.56
DEEEKDVRFFIKLLVHSLRTGDERALKHLLDPNVRMDINGREKIGWHQLRELLEEWRMHDIHITSVEVQGEKLFSHGLLEGVIGDKRVELEVEHTARKIDGRWIYTEVKFR	1.32
SEEEEDARRAFEMWFRVLMTGDEDQVDRLMDPHVRVDINGVDLHGRTTIRRLIHEEFNRADVRSFDVEHVDYQGDWVRLEVRLILVFNGKRLELKMELISRKINGRWILESQVVE	1.39
DEENEHAKHLMRELIKSIITGDEEMIDHLADPNMRLRVGDKEWHGREEIQHWLRRLVEEARIHDVELTSVRTIGDKVILDTRVDIKQGDKRKIITLIIIVQKFDGRWIIEEIRIH	2.57
DTSFTILEEVIKLFIEASETGDERVIQHLFDPNVRFRVDGKDFHGMDWLLEHFSHLRLHDIQITHVHIYNGRVEVTGHVRGNFDGQEKVHNTHILLRKIDGKWRIEHISMK	1.41
SEEDEEAERMVRALNHKFRTGDWELSEKLFDPNTKLEIIINGKHIDIHGREMVIRLMEDELRRFDHVDIEIKRVDSQGEKANNDGVLVIKQGDFEVRHRFTLIIHVVNGVIKKISILFH	0.996
DEETEDLRRWFEALLRSTHTGDFHTLNRLIDPNVRMDVGDKRHHGREFFEHLLRRADHIKIELEDYEFQGNKVIFHGKLIIHYNGQDLEYKSSMDAEKVDGRWIVRRVYLE	1.58
DEKERLADEILEDIRKSVHTGDWDEYLRLLDPNVRTVINGKTVHGREEIKELMERLGIDHHHLRVDHWEIIDGKVHVEIEVTLQIGDKHFSRSSHILIMKFNGQWIVHTFRLH	1.73

Sequence	protease stability score
THEQKLSHEITHIFWEILKTGDEHEMRRLADPNVQLEINGVERHGMHVLEHWLVHLGIDHLHVTDHRVQGEYSYWDTTLRVGDKERTIHLEVLAFNGRVKAFRLHVR	1.22
NEDEEWIHKFWETLRKNIETGNEEEIEKLFDPNTRVEIGDKIIHGRRFIEHLKERADHVEEVHFQHKHIEIQGDKVQVHGELDHDIRIGDKRHRLRLDIIIILKKYNGRWHVHSFIIT	1.2
TEHHERHIKLMRKIIEALLTGDEEILRKLMDPDVRWEQGDKTVIGMEAVIKFLKDVSRHIRIKDIKIERQTDINGRMFTEGHLHIQYGDKEDTQEVHIELDVINGRIKSFHVEYR	1.65
DEDHKRVREMTDILIELLVTGNEDLLLKLMDPHARERIGDWHSHGRESFVKLLQDLLERIKNVRIEIKDMRIRIYNGVAHSHIDGNNIYNGREIKALWILIIEKINGRWIVHSIELETE	1.45
TERHEHVLHLLNLFLEEWLTGDWDKFFRLADPNVKYFINGQDIHGRETIRENHEQKWRELRIREIRVHSVDVVGDKAHADITENLEVNGREIRTRSHLDIVVVNGRVHHVRMHVD	0.544
SEEHEVAKDAFDVTSHSWKTGDEELFRKLLDPNARFEIDGRDLHGRELVIKFIIEIRWEHTHVEEINVQGDKIIIKSRMEIHYNGVHINITVIVHVRKVNGRWITTHYIFI	1.67
SEREEEARKMTRRIIHTFFTGNEDFWDHLVDPNARVVINGVTVHGWERFQELLVDFLKEMRTRHIELRHLDAYGDKAHTDGRVDGDVNGQRVLRIEHLRVDVINGKVHSVEIEFR	0.916
RDEEEYAHRVLELWRFILETGDEDTLYELADPNVRFKFLQGNKEIHRHGRERMVEEIRTRREELGVKHIHLEHVEVWNGVVHLRVVVHFNGKELRSRIIIVVIDGVIKEIEIREE	1.04
SELEKLSHELARLLIENWETGDWKRFIDLIDPHAKLHIGDKDHIGREEITRFLKEVWHRFDHIEMRIHHIKVIGNYAHSDGEMIININGQERRHDVEIIVVVVNGVVHSVEIHIE	1.9
DEEEEYAIEFVILHIEALKTGDERKLEHLMDPHYKLDYNGRKVHGREQWLRFLNEWRVHIHDIKVDDHDVVNGRVILHVTIHGTVIFDGRNIRTHHEQEYVLHKVNGRWHFHSMIVR	1.5
DHQRDLLKEARERLLHSIETGDEELWRRLFDPETLLIAENHSSHGREARHDWKKRFDVIDHLEIRTRDVDMIGDKIYVEGKLDYITKYDGVTRNYTNTVHFIATKINGRWVIESVRFE	1.09
EEDKDWAEWAMRLFVELLFTGDEERLNHFLDPHVRVEFNGRDLHGREMLEKLLELMGIDHIQFKHIELRVIDGQVHLHIDGFADIDGRTHRIRIHMHFEKINGKWRFHSVKFEHK	1.39
DERTKEDEKWAKLFLEWHKTGNEEAFSHFADPHTRNTINGVELIGRESLMEFSKRWIEELRFKQLHIRDFKVVNGRVHIDSELHGIINGQEISTTVKIHIDIINGQTKSVEVRIL	1.17
DEQERHAEEFVREHMNAWVTGDWEMLIRQLDPNTRFIQGDKRHHGREALHYMRERVDHIKSVHIDRVDVYNGRVIIDIELIGLIDGRDVTFHVHIITKKIDGRWIVHELRHE	0.82
RQEEHDMEYAREIVERVLDTGDEHLMEEYFDPNAKLRIGDKEDHGREVFAHWVREIRVRHVQLTDHRLVGDKLEFDIELDININGREHRTKVHLIIRKVNGKWFIQHVEIR	1.19
TEDDEWFNEILRLMVEAMKTGDEHILERLLDPHVRIEINGKEIHGREEFVERLEEQQRKFKGIRHELEIKHTEVINGRAHIDGRLHIDVNGRRKIYRVELVILKIDGRWSVEEIRIH	1.67
TEDWELMKKAMEDLSRDLSTGDFERINRMLDPHTKLVVGDKEHHGMHAWEIFVKRIDHERSVEVRHFRIIGDKIDIDGTLHAEYGEKRITLKVHIIDSKVNGKWVIEVLSFK	1.4
NEDEEYVRLAHEILVETLRTGDEHITKRLADPHVRIDVGDKELHGWEDWLELLTHEARHLRTEIRVRNFDSQGDFIRVEVIIIIVVNGKRIEREVHYFSLKVDGRWLLTHVEIK	0.242
DEEEKYVEDIAREFLHAMRTGDEEWNKELADPHVRMHLHQGDYILNLHGRDLFTRVIRYLVDQWRLEIRIENFDSIGNKIEVHGTIILKQGDKSIKRKSIIHIDVVNGRLKEVHIHLQ	0.152
SDEERDANRFIKLWVDAMTTGDWEEISLLLDPNVLLLVGDKTYHGREEFVRIMHELIERVKNIRVEIKHREVQGDKIRVDTVLRVNGRTLREHVVMEKVNGQWVIRSLEFD	2.3
DEERKMYTYAHKLLKTSHDTGNEDDLTNLVDPNVRIDINGRDIHGWDFWHEMMTKLGVNVFETKHVELQGNKLHIDGTLHVDGRTHRVTINNIKIDGRWIIKHVHIE	-0.3
SEEEKEIKEILERLIRSLLTGDEQELAKMADPNVRFNFQVGNKKYTLHGREHLRRHITFVFEYLGFDHITIQDSHYQGDKMTVHVELRVNGRRHEIREHWLVVDGRIKEVHVEIH	2.32
DEIKKVALKMADLIFELYLTGNEELLRKLADPHMKLIIDGREFHGMHVSHEWILRELKEIRIEDWKIKDVHLQGNKVHIDLRVHGVVDGQREERDVKIHIIVINGRIHSMEMHKE	2
HEEEEREKEISDTFLMAWRTGDWKFFHELADPHVRVEIGDKRFIGRELLTKHMRHNVNKVKGMTHTLTHIIIQGDKIHLDGELIVDGRSHKVDFHIIVIDGRLHSLHVIIS	0.574
GEDKELARKAVEEELESLLTGDEDRLKELIDPHTKVFINGREEIGMEALEDVLKKLGFKHIKVHHFDIRVQGDKVKNDLRGIFHVNGKDIDTQLIIISLKYNGQWFNHSLEWRTR	0.595
